Key:
[1] = target: the molecule itself; experiment: co-sedimentation; centrifugation assay of phase separation: FG domain diluted into 20 mM NaPi pH 6.8, 5 mM DTT, NaCl, concentration and temperature as in the figures; 21,130 × g, 30 min; pellet (FG phase) and supernatant by SDS-PAGE/Coomassie; saturation concentration = concentration left in the supernatant (Formula Set 2)
[2] = target: the molecule itself; experiment: dynamic light scattering; self-association as LCST-type phase separation; prf.GLFG_(52×12) diluted into 20 mM NaPi pH 6.8 with 75-1200 mM NaCl, temperature raised by 1 °C per min from 2 to 40 °C; van't Hoff analysis (Formula Set 1)

Protein | binding result [1] | dH of phase separation when [NaCl] = 0 (van't Hoff) [2]
prf.GLFG_(37×12) (domain or fragment, also called N = 37; 37× repeats; not shown: histidine tag with a SUMO cleavage site, N-terminal, cleaved) GGLFGGNTQPATGGLFGGNTQPATGGLFGGNTQPATGGLFGGNTQPATGGLFGGNTQPATGGLFGGNTQPATGGLFGGNTQPATGGLFGGNTQPATGGLFGGNTQPATGGLFGGNTQPATGGLFGGNTQPATGGLFGGNTQPATGGLFGGNTQPATGGLFGGNTQPATGGLFGGNTQPATGGLFGGNTQPATGGLFGGNTQPATGGLFGGNTQPATGGLFGGNTQPATGGLFGGNTQPATGGLFGGNTQPATGGLFGGNTQPATGGLFGGNTQPATGGLFGGNTQPATGGLFGGNTQPATGGLFGGNTQPATGGLFGGNTQPATGGLFGGNTQPATGGLFGGNTQPATGGLFGGNTQPATGGLFGGNTQPATGGLFGGNTQPATGGLFGGNTQPATGGLFGGNTQPATGGLFGGNTQPATGGLFGGNTQPATGGLFGGNTQPAT | binds | 
prf.GLFG_(70×12) (domain or fragment, also called N = 70; not shown: histidine tag with a SUMO cleavage site, N-terminal, cleaved) GGLFGGNTQPATGGLFGGNTQPATGGLFGGNTQPATGGLFGGNTQPATGGLFGGNTQPATGGLFGGNTQPATGGLFGGNTQPATGGLFGGNTQPATGGLFGGNTQPATGGLFGGNTQPATGGLFGGNTQPATGGLFGGNTQPATGGLFGGNTQPATGGLFGGNTQPATGGLFGGNTQPATGGLFGGNTQPATGGLFGGNTQPATGGLFGGNTQPATGGLFGGNTQPATGGLFGGNTQPATGGLFGGNTQPATGGLFGGNTQPATGGLFGGNTQPATGGLFGGNTQPATGGLFGGNTQPATGGLFGGNTQPATGGLFGGNTQPATGGLFGGNTQPATGGLFGGNTQPATGGLFGGNTQPATGGLFGGNTQPATGGLFGGNTQPATGGLFGGNTQPATGGLFGGNTQPATGGLFGGNTQPATGGLFGGNTQPATGGLFGGNTQPATGGLFGGNTQPATGGLFGGNTQPATGGLFGGNTQPATGGLFGGNTQPATGGLFGGNTQPATGGLFGGNTQPATGGLFGGNTQPATGGLFGGNTQPATGGLFGGNTQPATGGLFGGNTQPATGGLFGGNTQPATGGLFGGNTQPATGGLFGGNTQPATGGLFGGNTQPATGGLFGGNTQPATGGLFGGNTQPATGGLFGGNTQPATGGLFGGNTQPATGGLFGGNTQPATGGLFGGNTQPATGGLFGGNTQPATGGLFGGNTQPATGGLFGGNTQPATGGLFGGNTQPATGGLFGGNTQPATGGLFGGNTQPATGGLFGGNTQPATGGLFGGNTQPATGGLFGGNTQPATGGLFGGNTQPATGGLFGGNTQPATGGLFGGNTQPATGGLFGGNTQPAT | binds | 
prf.GLFG_(52×12) (domain or fragment, Engineered after the MacNup98A FG domain, GLEBS deleted; also called perfectly repeated FG domain; N = 52; source: E. coli NEB Express, extracted from inclusion bodies, purified (Ni chromatography, SUMO protease cleavage, lyophilized); not shown: histidine tag with a SUMO cleavage site, N-terminal, cleaved) GGLFGGNTQPATGGLFGGNTQPATGGLFGGNTQPATGGLFGGNTQPATGGLFGGNTQPATGGLFGGNTQPATGGLFGGNTQPATGGLFGGNTQPATGGLFGGNTQPATGGLFGGNTQPATGGLFGGNTQPATGGLFGGNTQPATGGLFGGNTQPATGGLFGGNTQPATGGLFGGNTQPATGGLFGGNTQPATGGLFGGNTQPATGGLFGGNTQPATGGLFGGNTQPATGGLFGGNTQPATGGLFGGNTQPATGGLFGGNTQPATGGLFGGNTQPATGGLFGGNTQPATGGLFGGNTQPATGGLFGGNTQPATGGLFGGNTQPATGGLFGGNTQPATGGLFGGNTQPATGGLFGGNTQPATGGLFGGNTQPATGGLFGGNTQPATGGLFGGNTQPATGGLFGGNTQPATGGLFGGNTQPATGGLFGGNTQPATGGLFGGNTQPATGGLFGGNTQPATGGLFGGNTQPATGGLFGGNTQPATGGLFGGNTQPATGGLFGGNTQPATGGLFGGNTQPATGGLFGGNTQPATGGLFGGNTQPATGGLFGGNTQPATGGLFGGNTQPATGGLFGGNTQPATGGLFGGNTQPATGGLFGGNTQPATGGLFGGNTQPATGGLFGGNTQPAT |  | 24.4 kcal/mol
prf.GLFG_(44×12) (domain or fragment, also called N = 44; not shown: histidine tag with a SUMO cleavage site, N-terminal, cleaved) GGLFGGNTQPATGGLFGGNTQPATGGLFGGNTQPATGGLFGGNTQPATGGLFGGNTQPATGGLFGGNTQPATGGLFGGNTQPATGGLFGGNTQPATGGLFGGNTQPATGGLFGGNTQPATGGLFGGNTQPATGGLFGGNTQPATGGLFGGNTQPATGGLFGGNTQPATGGLFGGNTQPATGGLFGGNTQPATGGLFGGNTQPATGGLFGGNTQPATGGLFGGNTQPATGGLFGGNTQPATGGLFGGNTQPATGGLFGGNTQPATGGLFGGNTQPATGGLFGGNTQPATGGLFGGNTQPATGGLFGGNTQPATGGLFGGNTQPATGGLFGGNTQPATGGLFGGNTQPATGGLFGGNTQPATGGLFGGNTQPATGGLFGGNTQPATGGLFGGNTQPATGGLFGGNTQPATGGLFGGNTQPATGGLFGGNTQPATGGLFGGNTQPATGGLFGGNTQPATGGLFGGNTQPATGGLFGGNTQPATGGLFGGNTQPATGGLFGGNTQPATGGLFGGNTQPATGGLFGGNTQPAT | binds | 
prf.GLFG_(26×12) (domain or fragment, also called N = 26; 26× repeats; source: E. coli NEB Express, soluble fraction, purified (Ni(II) chelate column, on-column bdSENP1 cleavage, lyophilized); not shown: histidine tag with a SUMO cleavage site, N-terminal, cleaved) GGLFGGNTQPATGGLFGGNTQPATGGLFGGNTQPATGGLFGGNTQPATGGLFGGNTQPATGGLFGGNTQPATGGLFGGNTQPATGGLFGGNTQPATGGLFGGNTQPATGGLFGGNTQPATGGLFGGNTQPATGGLFGGNTQPATGGLFGGNTQPATGGLFGGNTQPATGGLFGGNTQPATGGLFGGNTQPATGGLFGGNTQPATGGLFGGNTQPATGGLFGGNTQPATGGLFGGNTQPATGGLFGGNTQPATGGLFGGNTQPATGGLFGGNTQPATGGLFGGNTQPATGGLFGGNTQPATGGLFGGNTQPAT | binds | 

— paper PMC9579204, “A simple thermodynamic description of phase separation of Nup98 FG domains” (Nature Communications, 2022)
